Reference: PMC5344980, “PARP1 promotes gene expression at the post-transcriptional level by modulating the RNA-binding protein HuR”

Tests used:
[1] = biological target: T1, GST-HuR (human? (species ; plasmid …, UniProt Q15717 1-326); assay: EMSA; no PARP1; 3 mM MgCl2, 40 mM KCl, 5% glycerol, 2 mM DTT, 2 ug tRNA, 20 uM (so in the source) 5'-biotin RNA, 40 min at room temperature; 6% native acrylamide gel; protein 100-160; conditions: protein: recombinant; tags: GST; label: 5' biotin
[2] = biological target: T1, GST-HuR; assay: EMSA; with PARP1 + PJ34; enhancement abolished; 3 mM MgCl2, 40 mM KCl, 5% glycerol, 2 mM DTT, 2 ug tRNA, 20 uM (so in the source) 5'-biotin RNA, 40 min at room temperature; 6% native acrylamide gel; protein 100-160; conditions: protein: recombinant; tags: GST; label: 5' biotin
[3] = biological target: T1, GST-HuR; assay: EMSA; no PARP1; Kd value only in figure; 3 mM MgCl2, 40 mM KCl, 5% glycerol, 2 mM DTT, 2 ug tRNA, 20 uM (so in the source) 5'-biotin RNA, 40 min at room temperature; 6% native acrylamide gel; protein 100-160; conditions: protein: recombinant; tags: GST; label: 5' biotin
[4] = biological target: PARP1 (UniProt P09874 2-1014); assay: EMSA; PARylation buffer, titrated sonicated DNA; no shifted bands; 3 mM MgCl2, 40 mM KCl, 5% glycerol, 2 mM DTT, 2 ug tRNA, 20 uM (so in the source) 5'-biotin RNA, 40 min at room temperature; 6% native acrylamide gel; protein 100-160; conditions: protein: recombinant; label: 5' biotin
[5] = biological target: T1, GST-HuR; assay: EMSA; no PARP1; several shifted bands; 3 mM MgCl2, 40 mM KCl, 5% glycerol, 2 mM DTT, 2 ug tRNA, 20 uM (so in the source) 5'-biotin RNA, 40 min at room temperature; 6% native acrylamide gel; protein 100-160; conditions: protein: recombinant; tags: GST; label: 5' biotin

T1 sequence (Q15717 whole entry): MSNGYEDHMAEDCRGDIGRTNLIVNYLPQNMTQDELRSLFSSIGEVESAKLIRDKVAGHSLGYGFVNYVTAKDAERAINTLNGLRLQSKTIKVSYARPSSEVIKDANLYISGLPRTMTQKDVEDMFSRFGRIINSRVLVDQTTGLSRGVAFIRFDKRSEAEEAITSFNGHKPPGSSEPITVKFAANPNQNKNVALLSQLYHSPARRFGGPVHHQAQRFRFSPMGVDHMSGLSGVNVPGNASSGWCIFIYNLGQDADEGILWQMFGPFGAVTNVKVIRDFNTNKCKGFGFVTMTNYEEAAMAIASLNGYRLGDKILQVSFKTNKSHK
Sequence of PARP1 (P09874 2-1014): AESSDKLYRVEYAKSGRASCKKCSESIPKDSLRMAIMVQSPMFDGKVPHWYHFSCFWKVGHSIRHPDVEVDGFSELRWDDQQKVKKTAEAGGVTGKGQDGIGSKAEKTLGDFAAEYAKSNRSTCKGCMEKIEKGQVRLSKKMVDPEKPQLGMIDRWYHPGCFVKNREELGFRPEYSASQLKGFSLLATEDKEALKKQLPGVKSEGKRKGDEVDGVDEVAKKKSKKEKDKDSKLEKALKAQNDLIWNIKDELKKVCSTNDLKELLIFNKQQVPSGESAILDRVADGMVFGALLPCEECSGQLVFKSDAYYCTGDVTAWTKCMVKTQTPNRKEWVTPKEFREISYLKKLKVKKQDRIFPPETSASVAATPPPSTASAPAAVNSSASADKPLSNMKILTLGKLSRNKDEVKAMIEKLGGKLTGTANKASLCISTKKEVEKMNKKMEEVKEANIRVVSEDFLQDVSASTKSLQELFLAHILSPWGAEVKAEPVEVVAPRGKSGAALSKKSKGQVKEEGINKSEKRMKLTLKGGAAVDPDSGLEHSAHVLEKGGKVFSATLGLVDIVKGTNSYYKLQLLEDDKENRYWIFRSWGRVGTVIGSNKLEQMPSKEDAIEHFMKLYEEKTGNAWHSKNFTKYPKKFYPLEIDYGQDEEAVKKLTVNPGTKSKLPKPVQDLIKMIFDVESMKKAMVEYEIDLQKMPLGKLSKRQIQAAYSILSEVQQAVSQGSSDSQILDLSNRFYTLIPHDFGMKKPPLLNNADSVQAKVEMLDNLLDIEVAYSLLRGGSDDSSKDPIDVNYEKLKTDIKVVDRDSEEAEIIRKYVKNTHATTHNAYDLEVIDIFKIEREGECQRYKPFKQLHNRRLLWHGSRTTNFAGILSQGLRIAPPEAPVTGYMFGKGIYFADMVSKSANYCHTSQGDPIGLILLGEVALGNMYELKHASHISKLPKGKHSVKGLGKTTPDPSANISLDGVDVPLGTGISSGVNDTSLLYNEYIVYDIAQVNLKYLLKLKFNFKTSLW

B1: Cxcl2-ARE3 RNA oligo (ssRNA)
RNA: GUGGACACAUUUAUUUAUUCAUGUA
B1: no binding [1].

B2: Cxcl2-ARE2 RNA oligo (ssRNA)
RNA: CUAUGUAUUUAUUUAUUUAUUAAUU
B2: binds [2].

B3: Cxcl2-ARE1 RNA oligo (ssRNA)
RNA: AGUUCACUUAUUUAUUUAUCUAUGU
B3: binds [3].

B4: AU-rich RNA oligo (tandem ARE) (ssRNA)
RNA: AUUUAUUUAUUUAUUUAUUUAUUUA
B4: no binding [4]; binds [5].
